Where two headings read alike, the source gives them in different places. Each block holds one molecule with its values, some of them ahead of it. Ends that are not written are not given here.
Experiments:
Test in all cases: fluorescence polarisation
[1] = target: mbGIPC PDZ domain (Monosiga brevicollis GIPC homologue, original construct) (Monosiga brevicollis)
[2] = target: mbGIPC PDZ domain (Monosiga brevicollis GIPC homologue, original construct) (Monosiga brevicollis); remark: listed apart in the source
[3] = target: mbSHANK1 PDZ domain (Monosiga brevicollis SHANK1 homologue) (Monosiga brevicollis)

Molecule: β-1 adrenergic receptor (B1AR) C-terminal peptide
- fold worse affinity than GAIP [1]: 20 fold

Molecule: GAIP C-terminal peptide
- Ki [1]: 0.14 µM

Molecule: VEPKKSFDEI [decameric peptide matching the final 10 residues of the mbGIPC_(SFDEI) construct]
- Ki [2]: > 1000 µM

Second part, the molecule after the results:

- fold worse affinity than GAIP [1]: 10 fold
Molecule: tyrosinase-related protein 1 (TYRP1) C-terminal peptide

- fold higher affinity than the GIRK3 peptide [3]: 62 fold
Molecule: NDPAWDETNL (also: fluorescent label, kind and position not given here) [fluorescent β-PIX peptide]

— doi:10.1101/2020.05.28.121053
